Columns and labels:
[1] = molecular target: CtpA as used in the gel filtration experiments (Pseudomonas aeruginosa); test: not stated; CtpA alone on ice at 4 °C (Appendix Fig. S12a)
[2] = molecular target: CtpA as used in the gel filtration experiments (Pseudomonas aeruginosa); test: SEC; CtpA or CtpAΔC6 alone incubated at 30 °C for 15 min in 20 mM Tris pH 7.5, 5 mM MgCl2, 100 mM KCl; Superdex 200 increase
[3] = molecular target: CtpA as used in the gel filtration experiments (Pseudomonas aeruginosa); test: as above; remark: listed apart in the source
[4] = molecular target: CtpA as used in the gel filtration experiments (Pseudomonas aeruginosa); test: SEC; separately purified CtpA (or CtpAΔC6) mixed with LbcA at molar ratios 6:1, 6:2, 6:3, 30 °C for 15 min in 20 mM Tris pH 7.5, 5 mM MgCl2, 100 mM KCl; Superdex 200 increase; peaks analysed by SDS-PAGE
[5] = molecular target: CtpA(ΔN37, S302A), co-expressed with LbcA(ΔN31), 6xHis tag removed (Pseudomonas aeruginosa); test: cryo-EM structure; co-expressed CtpA(ΔN37, S302A)-LbcA(ΔN31) complex purified by HiTrap Ni, HiTrap Q and Superose 6 Increase (20 mM Tris pH 7.5, 5 mM MgCl2, 100 mM KCl, 1 mM DTT), 0.8 mg/ml; single particle analysis; molar ratio judged by band intensity in stained SDS-PAGE gels
[6] = molecular target: 6xHis-CtpA(ΔN37), wild type (Pseudomonas aeruginosa); test: ITC; 250 μM LbcA in the syringe titrated into 9 μM CtpA hexamer (32 μM for CtpAΔC6 dimer) in the cell; 25 °C; 20 mM Tris pH 7.5, 5 mM MgCl2, 100 mM KCl; one-site fit
[7] = molecular target: 6xHis-CtpA(ΔN37, S302A), purified alone (Pseudomonas aeruginosa); test: as above
[8] = molecular target: 6xHis-CtpA(ΔN37, ΔC6) (Pseudomonas aeruginosa); test: as above
[9] = molecular target: 6xHis-CtpA(ΔN37, ΔC6) (Pseudomonas aeruginosa); test: SEC; CtpA or CtpAΔC6 alone incubated at 30 °C for 15 min in 20 mM Tris pH 7.5, 5 mM MgCl2, 100 mM KCl; Superdex 200 increase
[10] = molecular target: 6xHis-CtpA(ΔN37, ΔC6) (Pseudomonas aeruginosa); test: SEC; separately purified CtpA (or CtpAΔC6) mixed with LbcA at molar ratios 6:1, 6:2, 6:3, 30 °C for 15 min in 20 mM Tris pH 7.5, 5 mM MgCl2, 100 mM KCl; Superdex 200 increase; peaks analysed by SDS-PAGE
[11] = molecular target: 6xHis-CtpA(ΔN37, ΔC6) (Pseudomonas aeruginosa); test: cryo-EM 2D class averages of a cross-linked mixture; CtpAΔC6 mixed with LbcA at 6:4 molar ratio, 30 °C for 15 min in 20 mM HEPES pH 7.5, 5 mM MgCl2, 100 mM KCl, cross-linked with 1 mM BS(PEG)9 on ice overnight; 2D classification
[12] = molecular target: 6xHis-CtpA(ΔN37, S302A), purified alone (Pseudomonas aeruginosa); test: negative staining EM; CtpA(S302A) 10 μg/ml on carbon grids prepared at room temperature, uranium formate stain, 2D classification

## CtpA as used in the gel filtration experiments (printed only as CtpA) (enzyme)
[1]
  stoichiometry N: 6
[2]
  stoichiometry N: 2
[3]
  stoichiometry N: 6
[4]
  stoichiometry N: 6

## CtpA(ΔN37, S302A), co-expressed with LbcA(ΔN31), 6xHis tag removed (enzyme)
[5]
  stoichiometry N: 6

## LbcA(ΔN31) with C-terminal 6xHis tag, purified alone (natural protein)
[6]
  Kd: 920 nM
[7]
  Kd: 760 nM
  stoichiometry N (LbcA per CtpA dimer): 1
[8]
  Kd: 850 nM
[4]
  stoichiometry N (CtpA:LbcA (molar ratio)): 2

## 6xHis-CtpA(ΔN37, ΔC6) (enzyme)
[9]
  stoichiometry N: 2
[10]
  stoichiometry N: 2
[11]
  stoichiometry N: 2

## LbcA(ΔN31), co-expressed with CtpA(ΔN37, S302A) (natural protein)
[5]
  stoichiometry N (CtpA:LbcA (molar ratio)): 2

## 6xHis-CtpA(ΔN37, S302A), purified alone (enzyme)
[12]
  stoichiometry N: 2
